Results on 23 sequences are retold here after the DeepSol protein solubility set.

This series can be described thus: soluble on expression in E. coli; label from the status in PepcDB or PDB records.
As for “MGSSHHHHHHSSGLVPRGSHMSGSGSGSGTALTPSYLKDDDGRSLILRGFNTASSAKSAPDGMPQFTEADLAREYADMGTNFVRFLISWRSVEPAPGVYDQQYLDRVEDRVGWYAERGYKVMLDMHQDVYSGAITPEGNSGNGAGAIGNGAPAWATYMDGLPVEPQPRWELYYIQPGVMRAFDNFWNTTGKHPELVEHYAKAWRAVADRFADNDAVVAYDLMNEPFGGSLQGPAFEAGPLAAMYQRTTDAIRQVDQDTWVCVAPQAIGVNQGLPSGLTKIDDPRAGQQRIAYCPHLYPLPLDIGDGHEGLARTLTDVTIDAWRANTAHTARVLGDVPIILGEFGLDTTLPGARDYIERVYGTAREMGAGVSYWSSDPGPWGPYLPDGTQTLLVDTLNKPYPRAVAGTPTEWSSTSDRLQLTIEPDAAITAPTEIYLPEAGFPGDVHVEGADVVGWDRQSRLLTVRTPADSGNVTVTVTPAA”, the “soluble on expression in E. coli” value is reported as “soluble”. For the sequence “MGSDKIHHHHHHMASSTSIDFKGNVTGALADRQLRANFRSALDGLRAKRLNVFSDAEELDRMRVQGEANKRRALAQLPALLEQLEHRCTANGIIVHWAETTDEANRIVLDIMRSHDATTLVKGKSMVSEEMHLNAYLERHGIEALETDLGEFIIQLNHEPPSHIIVPAVHKNRQQVARIFHEKLGEPYVDEVEKLNAIARRTLREKFRTAQVGLSGVNFAIAETGTLLLVENEGNGRMCTTVPPVHIALMGLEKVVERLEDVPPLLRLLTGSATGQLVTTYVNCITSPRKPGEKDGPREVHLVILDNGRSRMLADPQLSRTLQCIRCGTCLNHCPVYVRIGGHAYDSVYPGPIGKILTPQIDGLARKGVLATASSLCNACEEVCPVRIPIPALLRRLRRESYAPPGEGVVKGAGSKRTLFEKAVWKGWEMVYSHPALYSFVLKVLGRFGHRLPKVGPLKAWTSVRTAPRFASTSLHELTRQEGIRHE”, the “soluble on expression in E. coli” value is “not soluble”. Take “MKISMEGSSVINLEQLSLYQDSLGYLGQQMNFPEKMTFHPKIFEETISKSHPGYEDLLAYREVMMNYTLSEIKAIYTDTFDFSKKHPLYMTFNKFDTQKERGQMLAKLKVLYEMFGLKMVDNELSDFLPLMLQFLQVADFKNDSRAQENLQLVIMIIEDGTYEMANTLAENNNPYAYVVSALRKTLKACIVPLKEVENHA”: the “soluble on expression in E. coli” value is reported as “not soluble”. For “MSSAGEANCAMIGGSLSAARQLDGSVIGMCALPNGKRCSEQSLAAGSCGSY” the value was “not soluble”; for “MGSDKIHHHHHHMTEITTLSQFLTTAKTQFQVYDLGRRVQHIDMLAFHQIESLSTPYPYPIQGHAQFAIVFWDASQQHFIWFLKLALDEQGLLSPAPRSQFIEMILAALGQDPTQPLSDEQQERLANNPFNFKPSQEKLAVFNALVRKQLGQRASSQYEFAVQYLSGQVAPAQWQHIGMQGIADVCARANEFDHEQQLVSSFDTAAIEVQIALCQCLEHLLISDTLADKILAKLQDAAPEHQAYFLRALASSAKHSQQAFEHLHGQASLDTNALISIAGRNWSVLKQDSSRSLYLEALALQPQAFFNQVFADIVAIPSLRNQLLGELRNPNRSVQLSQAIGGLFKAASK”, “not soluble”; for “MVTRVLIVGDGDAGTIMANKLRFHTDRRDVDITVVGNSKDHYFKPDGVHISFNMVDYKKSVKPTEFLFNYGVNYIRDTVSRIDVADHSVQTTGGRNLDYDYLIIATGDRFTPEDVPGYAESAKHFYDLPHALELQKEIKGFKGGKVVIGQASIPIMCPPAPYEFTFLLEEYLNFHGLKDKTEIHYIYPLNRVFTIPNVADFVAKRMEERGIITHTLFNVESIDPKNKKIQSLEGESINYDLLVLIPPHRGQKVITDSGLADESGYIDVDKYKLNYKDYDNVFAIGDATNLPVSKAGATAHFEALYLSNRIAAETSGNVYNELYEGDVACTTVTGYEKGLTLYFNYNKPPRANYDSKLDYFLKWQSGDTFFSSMLRGVALEHHHHHH”, “not soluble”.

“MAEINIYQNPGQSLANIYKGFARQCNPGFVFPEAQTIEAWDIPLRLHPEFIPGGDISKADQQYSTLLAQEIANGVTIGFRMVNEKERVCNVEILPLLTSMAQNLDRIKARFGSGYLDRFKGSPNVYPTDVGFSTDASGGISQESGLLVSYGVNLRTLTPGTWQAMTLPEDIKALVGPGVGLRLDAPNFSDVFNTIKSGLRYTTAVTLLLAYFAAI”: the “soluble on expression in E. coli” value is recorded as “soluble”. For the sequence “RRAELNTNETDESEKVIEGYFAVFNSETELFPGAFEEILPGAFDNTLENDVRALINHDTALVLGRNVSKTLSLRVDDKGLWGQIKINPLDSDAINLYERVKRGDVSQCSFGFNIIKEQEEWRDDGSVKWSLEEVELHEVSVCTFPAY”, the “soluble on expression in E. coli” value was “not soluble”. For “MVYPRLLINLKEIEENARKVVEMASRRGIEIVGVTKVTLGDPRFAETLRKAGIGILGESRIRNVLRMKKAGIEGPFMLLRLPMMSELVEDVKHFDYIMVSDPDVAKKVDELSREMKRNVKIIYMIDVGDLREGVWFEKAVEEIAQCRGANIVGIGTNFGCYGGIIPTREKFEILLDIKEKLEKNHGFNIEIVSGGNTPALYALENGEIPEGINQLRIGEAIVLGRDITNNRVIDWLSQNTFLIEAEVIEVKEKPSVPLGKRGLDVFGRKVDFVDRGIRKRAICALGEQDIDSRGLIPVDKGVEVLHASSDHIVLDVTDFGDVKVGDVFRFRMTYSCLLKAMTSPFVEKVYEPSI” the value was “soluble”; for “MSLKLLAFDTSSTALSVAILEDDRLLADASLTIKKNHSISLMPTIDFLMKSVNLSPQDLDRIVVAEGPGSYTGLRVAVATAKTLAYTLTIDLVGVSSLAALALNSHHEGFIVPIMDARRNHVYVGFYENGRAAKADQYASLNAVLEQLKGRKQVTFVGEVTAFRQEINQTFPEAKVLEVLPSAFKIGQVGQKLTPVDVHAFVPKYLKKVEAEENWLKTHEDSGLSYVKRVEGHHHHHH”, “not soluble”; for “MWGRYEKLRIFYDPTRAIYDSGADYLTREKHRLVVIANSAWGLLLNLSCYYDEVLEKRKIPFGKQEIDDDMDKVSALKRKFKDISEIKVGDGWEYPFNYEQGMKELDEVLLKYIPFFEEER”, “not soluble”. Take “MTPWLGLIVLLGSWSLGDWGAEACTCSPSHPQDAFCNSDIVIRAKVVGKKLVKEGPFGTLVYTIKQMKMYRGFTKMPHVQYIHTEASESLCGLKLEVNKYQYLLTGRVYDGKMYTGLCNFVERWDQLTLSQRKGLNYRYHLGCNCKIKSCYYLPCFVTSKNECLWTDMLSNFGYPGYQSKHYACIRQKGGYCSWYRGWAPPDKSIINATDP”: the “soluble on expression in E. coli” value is listed as “not soluble”. For “MGSDKIHHHHHHMMNKPAPRELEVIRSTYITPHMLRITLGGAGLAGFPADQESAYIKLLFPQAGERPLMRTYTIRQQRDDEIDVDFVLHDTDGPASSWAKTAQVGELIQIGGPGLKKLINFEADWFLLAGDMTALPAISVNLAKLPNNAVGYAVIEVLSEADIQPLVHPEHVELHWVINPEADPEGRPLVERIAQLPWLAGEPAVWIACEFNSMRALRRHFKQAHALPKSHFYTSSYWKIGCNEGEHKLVKQEDEQLENGASV” the value was “not soluble”; for “MGHHHHHHSHMASKKPDKTYEEMVKEVERLKLENKTLKQKVKSSGAVSSDDSILTAAKRESIIVSSSRALGAVAMRKIEAKVRSRAAKAVTEQELTSLLQSLTLRVDVSMEETTVGASGGIGPSSQTETKKRRPRSKSRHRHDHE”, “not soluble”; for “GPGSYDSNLYVASLPEWFTDADLHELFKRFGPIVSAKVMCHKGTHHCKGYGFVLFQRTDDAAVARSEMIGHVVGGNKIQVRRARSAASAPLTEAASAVSGTFTESSGSTRTSSSNVTPINYSVHVVPSQQPSFNPLYPATTALTPTYVLTNPSAPVQNATHTQPAMLVAVPNGRTMVQGAGDVMYMVLASSAQQMQSTSAIY”, “not soluble”. For “MYRLERTQRLPISIDEAWDFFASPDNLKKITPAYMGFDIKSGGGIPMYAGMIIKYTVRPLLGIPMTWVTEITHVEPQRFFVDEQRVGPYAIWHHQHHFKAIENGVEMTDILHYKLPFGILGNLAHPFLVKNKLEEIFNFRNKKMVELFGTYKLEHHHHHH” the value was “soluble”; for “MVRVCACLIVKNEAAHLARCLGSVQPWVDDIVVVDTGSTDETPAIARQFTERLFTFPWQDDFAAARNYSLEQATGDWILVIDADEVLVTLQEPPVPLGQQLAGSPFTAYQLLRREIGTGEQFSDFAIVRLFRNLPTLRYQGRFHEQLVSTAAAPLTIGTLETLRIDHYGYQPAQIQAKMRDRNIPILERIRASEGLPLHLLFALADMYQAVNNPVEAENCYQELFDRLLPHLLSGQLPENAPGALPEILNQLGRRLLATGDHDTLQLLCQQGLAWFPTYPPLNDLAGRWLMTLGFPLGATAYFEYCLELGRTNGYSKQMIFPLGYVREIAAEQLGRAYEALGDRERAAAAFAQAAALRQGKAHPQLEHHHHHH”, “soluble”. As to “MAHHHHHHMSELQAAAGVFGRGTAAGDAIYRCYARPTKESTLDPELLARLQKMRLEREAAEAALFRPKPVPKSKAMISRPRVGLGRRISEEEIARRRLDALPHKKREESIQRELRAFGRPSLLPPLYKSPPITVAEKERLRQIFQFGELPPKPLNFTGANRVRYALIDRRFRLKDRFETLKKHVDALREELRQLRQQPQKSALPETVADGKGNENEIIPSGAEIIRRFHRRDPVMALERRMLEQELTTSIGEVLQEMKEIDFDLRQLDENEAKRYIPKP”, the “soluble on expression in E. coli” value is given as “not soluble”. For “MGSDKIHHHHHHMAKEILVAYGVDIDAVAGWLGSYGGEDSPDDISRGLFAGEVGIPRLLKLFKKYHLPATWFSPGHSIETFSEQMKMIVDAGHEVGAHGYSHENPIAMTAKQEEDVLLKSVELIKDLTGKAPTGYVAPWWEFSNITNELLLKHGFKYDHSLMHNDFTPYYVRVGDSWSKIDYSLEAKDWMKPLIRGVETDLVEIPANWYLDDLPPMMFIKKSPNSFGFVSPHDIGQMWIDQFDWVYREMDYAVFSMTIHPDVSARPQVLLMHEKIIEHINKHEGVRWVTFNEIADDFLKRNPRKK” the value was “not soluble”; for “MLHILINFINFGKMFTLGNIMKFKKIYIELSDICGLKCDFCPSQKGIRGVMSEEKFQNLAYEISNKAELFTFHLLGDPLLLPNLENYLKIAKDEAMKLEITTSGFYLNSKNQALLLGYENIHQINISLMSFLSQSKISLEQYFKPILELCKKHLEQKSLSFINLRLWNLDANFKAPKSNLKIYEFLAKEFEAKIDANLSKNRLQRHILLHQNKLFKWPNLKDEPLYKKGKCHALKEQIGILSDGSLVPCCLDTKADINLGNVFENNFDKLFRSPRIKMMKKAFEEDKRIEKLCQTCEFFKARLGD”, “not soluble”. Regarding “MNLEQLINVLGLLVWIAARAVSRVGPHGSGLVYRELHDFYGYLQLDLLGPVVAGNRSVRTWREQADRARGTFAWRSGLNTSRILPVGSMYRGSDALPAGLYRPEEEVFLLLNRCHGPLSTPKNACLAEVGVANATFLSRFNVGDFHGASWENGTAPDGEPGVCLEHHHHHH”, the “soluble on expression in E. coli” value is on record as “not soluble”. For “FGTFKSAITDYHGYEYKNHGYGLALTDTDLLGGSSGSLVFNQDKKISSIYSAATESDSVGYAQLLPVPKDV” the value was “not soluble”. For “LPVPAGSRFEARVLGETRAMCCPGCQAVAEAIVAGGLESYYRHRSENAANPEALPKALSEELQLYDRPDVQGGFVRHEGELAETSLMIEGISCAACGWLIEKHLRQLPGVAEARLNLSNHRLHVRWQDSQLPLSQLLGELRQIGYAGHPYQPDRATERLAMENRR” the value was “not soluble”.
